# Patent US20250296959A1, “B7-H3 TARGETING PEPTIDES AND CONSTRUCTS THEREOF” (Mariana Oncology Inc., priority 2024, published 2025)
# Starred links: 1 amine or outer side, 2 acyl side, 3 side chain; linkers in the order of their positions; H or OH if unused. Positions of bridges follow the written chain, without caps; N, C: chain ends. Non-standard residues stand in square brackets, D forms with d. Groups on a side chain read outwards from the residue. Primed or numbered codes have the meaning given here. *: point of attachment. Ala(piperidin-4-yl) = O=C([C@H](CC1CCN([*:3])CC1)N[*:1])[*:2]; (2S,3S)βMePhe = C[C@@H](c1ccccc1)[C@H](N[*:1])C(=O)[*:2]; DOTA = O=C(O)CN1CCN(CC(=O)O)CCN(CC(=O)*)CCN(CC(=O)O)CC1; Phe(4-NHCONH2) = NC(=O)Nc1ccc(C[C@H](N)C(=O)O)cc1; PipAla = piperidinyl-alanine residue (as named); Trp(5-F) = N[C@@H](Cc1c[nH]c2ccc(F)cc12)C(=O)O; hydroxyVal = hydroxy-valine residue (as named); PEG4′ = 4x 3-(2-aminoethoxy)propanoic acid; 1Nal = N[C@@H](Cc1cccc2ccccc12)C(=O)O; Ala(4-THP) = N[C@@H](CC1CCOCC1)C(=O)O; Val(3-OH) = CC(C)(O)[C@H](N)C(=O)O; Cha = N[C@@H](CC1CCCCC1)C(=O)O; Tle = CC(C)(C)[C@H](N)C(=O)O; hLeu = CC(C)CC[C@H](N)C(=O)O; Sar = CNCC(=O)O
# T1: B7-H3 on Calu-6 cells (human, UniProt Q5ZPR3 29-534)
# T1 construct: whole, on cells
# T1 sequence (looked up): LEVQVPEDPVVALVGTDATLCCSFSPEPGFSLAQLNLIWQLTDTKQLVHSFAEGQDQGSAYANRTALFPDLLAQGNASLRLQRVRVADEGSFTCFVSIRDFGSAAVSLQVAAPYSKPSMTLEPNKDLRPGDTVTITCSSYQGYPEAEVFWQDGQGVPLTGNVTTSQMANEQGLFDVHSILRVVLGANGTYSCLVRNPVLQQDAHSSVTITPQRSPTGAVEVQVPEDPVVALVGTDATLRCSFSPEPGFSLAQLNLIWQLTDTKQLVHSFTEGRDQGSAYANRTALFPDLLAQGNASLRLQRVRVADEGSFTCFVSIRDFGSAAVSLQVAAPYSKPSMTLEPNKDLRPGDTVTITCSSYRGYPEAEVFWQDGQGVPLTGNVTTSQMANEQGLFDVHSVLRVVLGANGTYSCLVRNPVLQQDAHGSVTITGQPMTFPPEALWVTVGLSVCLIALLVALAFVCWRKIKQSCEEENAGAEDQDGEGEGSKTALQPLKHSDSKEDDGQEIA
# Target: B7-H3 on Calu-6 cells (human) (UniProt Q5ZPR3)
# Experiment: 177Lu-labelled peptide on Calu-6 cells, % cell associated fraction; B = 25<%<=50
row,% cell associated fraction,Binder
1,25 to 50%,"Ac-[hLeu]YC[Tle]G[PipAla](CH2COOH)[PipAla]([PEG4′-DOTA])DVYC[Trp(5-F)][(2S,3S)βMePhe][Val(3-OH)][dE]-NH2 (disulfide 3-11 (inferred)) [Cpd 496]"

# Target: T1, B7-H3 on Calu-6 cells
# Experiment: 177Lu-labelled peptide on Calu-6 cells, % cell associated fraction; C = >50%
row,% cell associated fraction,Binder
1,> 50%,Ac-[hLeu]YCVGKYDVYC[Trp(5-F)]FT[dK](DOTA)-NH2 (disulfide 3-11; SMILES CC(=O)N[C@@H](CCC(C)C)C(=O)N[C@@H](Cc1ccc(O)cc1)C(=O)N[C@H]1CSSC[C@@H](C(=O)N[C@@H](Cc2c[nH]c3ccc(F)cc23)C(=O)N[C@@H](Cc2ccccc2)C(=O)N[C@H](C(=O)N[C@H](CCCCNC(=O)CN2CCN(CC(=O)O)CCN(CC(=O)O)CCN(CC(=O)O)CC2)C(N)=O)[C@@H](C)O)NC(=O)[C@H](Cc2ccc(O)cc2)NC(=O)[C@H](C(C)C)NC(=O)[C@H](CC(=O)O)NC(=O)[C@H](Cc2ccc(O)cc2)NC(=O)[C@H](CCCCN)NC(=O)CNC(=O)[C@H](C(C)C)NC1=O) [Cpd 73]
2,> 50%,Ac-[hLeu]YC[Tle]GKYDVYCWFT[dK](DOTA)-NH2 (disulfide 3-11; SMILES CC(=O)N[C@@H](CCC(C)C)C(=O)N[C@@H](Cc1ccc(O)cc1)C(=O)N[C@H]1CSSC[C@@H](C(=O)N[C@@H](Cc2c[nH]c3ccccc23)C(=O)N[C@@H](Cc2ccccc2)C(=O)N[C@H](C(=O)N[C@H](CCCCNC(=O)CN2CCN(CC(=O)O)CCN(CC(=O)O)CCN(CC(=O)O)CC2)C(N)=O)[C@@H](C)O)NC(=O)[C@H](Cc2ccc(O)cc2)NC(=O)[C@H](C(C)C)NC(=O)[C@H](CC(=O)O)NC(=O)[C@H](Cc2ccc(O)cc2)NC(=O)[C@H](CCCCN)NC(=O)CNC(=O)[C@H](C(C)(C)C)NC1=O) [Cpd 72]
3,> 50%,Ac-[hLeu]YC[Tle]GKYDVYC[Trp(5-F)]FT[dK](DOTA)-NH2 (disulfide 3-11; SMILES CC(=O)N[C@@H](CCC(C)C)C(=O)N[C@@H](Cc1ccc(O)cc1)C(=O)N[C@H]1CSSC[C@@H](C(=O)N[C@@H](Cc2c[nH]c3ccc(F)cc23)C(=O)N[C@@H](Cc2ccccc2)C(=O)N[C@H](C(=O)N[C@H](CCCCNC(=O)CN2CCN(CC(=O)O)CCN(CC(=O)O)CCN(CC(=O)O)CC2)C(N)=O)[C@@H](C)O)NC(=O)[C@H](Cc2ccc(O)cc2)NC(=O)[C@H](C(C)C)NC(=O)[C@H](CC(=O)O)NC(=O)[C@H](Cc2ccc(O)cc2)NC(=O)[C@H](CCCCN)NC(=O)CNC(=O)[C@H](C(C)(C)C)NC1=O) [Cpd 76]
4,> 50%,Ac-[hLeu]YCVGKYDVYC[1Nal]FT[dK](DOTA)-NH2 (disulfide 3-11; SMILES CC(=O)N[C@@H](CCC(C)C)C(=O)N[C@@H](Cc1ccc(O)cc1)C(=O)N[C@H]1CSSC[C@@H](C(=O)N[C@@H](Cc2cccc3ccccc23)C(=O)N[C@@H](Cc2ccccc2)C(=O)N[C@H](C(=O)N[C@H](CCCCNC(=O)CN2CCN(CC(=O)O)CCN(CC(=O)O)CCN(CC(=O)O)CC2)C(N)=O)[C@@H](C)O)NC(=O)[C@H](Cc2ccc(O)cc2)NC(=O)[C@H](C(C)C)NC(=O)[C@H](CC(=O)O)NC(=O)[C@H](Cc2ccc(O)cc2)NC(=O)[C@H](CCCCN)NC(=O)CNC(=O)[C@H](C(C)C)NC1=O) [Cpd 158]
5,> 50%,Ac-[hLeu]YCV[Sar]KYDVYC[Trp(5-F)]FT[dK](DOTA)-NH2 (disulfide 3-11; SMILES CC(=O)N[C@@H](CCC(C)C)C(=O)N[C@@H](Cc1ccc(O)cc1)C(=O)N[C@H]1CSSC[C@@H](C(=O)N[C@@H](Cc2c[nH]c3ccc(F)cc23)C(=O)N[C@@H](Cc2ccccc2)C(=O)N[C@H](C(=O)N[C@H](CCCCNC(=O)CN2CCN(CC(=O)O)CCN(CC(=O)O)CCN(CC(=O)O)CC2)C(N)=O)[C@@H](C)O)NC(=O)[C@H](Cc2ccc(O)cc2)NC(=O)[C@H](C(C)C)NC(=O)[C@H](CC(=O)O)NC(=O)[C@H](Cc2ccc(O)cc2)NC(=O)[C@H](CCCCN)NC(=O)CN(C)C(=O)[C@H](C(C)C)NC1=O) [Cpd 77]

# Target: B7-H3 on Calu-6 cells (human) (UniProt Q5ZPR3)
# Experiment: as above
row,Binder,% cell associated fraction
1,Ac-[hLeu]YCVG[Ala(piperidin-4-yl)][Cha]DVYC[Trp(5-F)]F[Val(3-OH)][dK](DOTA)-NH2 (disulfide 3-11 (inferred)) [Cpd 227],> 50%
2,Ac-[hLeu]YC[Tle]G[PipAla][Ala(4-THP)]DVYC[Trp(5-F)]F[hydroxyVal][dK]([hGlu-DOTA])-OH (disulfide 3-11 (inferred)) [Cpd 464],> 50%
3,Ac-[hLeu]YC[Tle]GK[Pip(PEG4-DOTA)Ala]DVYC[Trp(5-F)]F[Val(3-OH)][dS]-NH2 (disulfide 3-11 (inferred)) [Cpd 408],> 50%
4,"Ac-[hLeu]YC[Tle]G[PipAla][Ala(4-THP)]DV[Phe(4-NHCONH2)]CXF[hydroxyVal][dK](DOTA)-OH (disulfide 3-11 (inferred); not fully specified (residue 12); printed as Ac-hLeu-Y-C-Tbg-G-PipAla-ThpA-D-V-Aph(Cbm)-C-5FW-F-hydroxyVal-dLys(DOTA)-COOH, disulfide) [Cpd 427]",> 50%
5,Ac-[hLeu]YC[Tle]G[Pip(PEG4-DOTA)Ala][Ala(4-THP)]DVYC[Trp(5-F)]F[Val(3-OH)][dS]-NH2 (disulfide 3-11 (inferred)) [Cpd 407],> 50%
6,Ac-[hLeu]YC[Tle]G[PipAla](CH2CO2H)[Ala(4-THP)]DVYC[Trp(5-F)]F[Val(3-OH)][dK](DOTA)-OH (disulfide 3-11 (inferred)) [Cpd 339],> 50%
7,"Ac-[hLeu]YC[Tle]G[PipAla][Ala(4-THP)]DVYCX[(2S,3S)βMePhe][hydroxyVal][dK](DOTA)-OH (disulfide 3-11 (inferred); not fully specified (residue 12); printed as Ac-hLeu-Y-C-Tbg-G-PipAla-ThpA-D-V-Y-C-5FW-[(2S, 3S)beta-Me-Phe]-hydroxyVal-dLys(DOTA)-COOH, disulfide) [Cpd 433]",> 50%
8,"Ac-[hLeu]YC[Tle]G[PipAla](CH2COOH)[Ala(4-THP)]DVYC[Trp(5-F)][(2S,3S)βMePhe][Val(3-OH)][dK](DOTA)-OH (disulfide 3-11 (inferred)) [Cpd 497]",> 50%

# The next lines start with the values.
row,% cell associated fraction,Binder
1,> 50%,"Ac-[hLeu]YC[Tle]G[PipAla][Ala(4-THP)]DVYC[Trp(5-F)][(2S,3S)βMePhe][Val(3-OH)][dK]([dE-DOTA])-OH (disulfide 3-11 (inferred)) [Cpd 501]"
2,> 50%,Ac-[hLeu]YC[Tle]G[Ala(piperidin-4-yl)][Ala(4-THP)]DVYC[Trp(5-F)]F[Val(3-OH)][dK](DOTA)-OH (disulfide 3-11 (inferred)) [Cpd 340]
3,> 50%,"Ac-[hLeu]YC[Tle]G[PipAla](CH2COOH)[Ala(4-THP)]DV[Phe(4-NHCONH2)]C[Trp(5-F)][(2S,3S)βMePhe][Val(3-OH)][dK](DOTA)-OH (disulfide 3-11 (inferred)) [Cpd 499]"
4,> 50%,Ac-[hLeu]YC[Tle]G[PipAla][PipAla]([PEG4′-DOTA])DVYC[Trp(5-F)]F[hydroxyVal][dA]-OH (disulfide 3-11 (inferred)) [Cpd 455]
5,> 50%,"Ac-[hLeu]YC[Tle]G[PipAla][PipAla]([PEG4′-DOTA])DVYC[Trp(5-F)][(2S,3S)βMePhe][Val(3-OH)][dE]-NH2 (disulfide 3-11 (inferred)) [Cpd 495]"
6,> 50%,Ac-[hLeu]YC[Tle]GK[Pip(PEG4-DOTA)Ala]DVYC[Trp(5-F)]F[Val(3-OH)][dA]-NH2 (disulfide 3-11 (inferred)) [Cpd 385]
